Paper PMC11187563, “The importance of tyrosines in multimers of cyclic RGD nonapeptides: towards αvβ6-integrin targeted radiotherapeutics” (RSC Medicinal Chemistry, 2024)
Where two headings read alike, the source gives them in different places.

Columns and labels:
[1] = test system: αvβ6-integrin expressing human lung adenocarcinoma cell line H2009 xenografts; test: Ex vivo biodistribution of 177Lu-labeled peptide tetramers in H2009 xenografted SCID mice; conditions: H2009 bearing SCID mice
Outline: (§1)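 SCID mice carried subcutaneous H2009 xenografts on the right shoulder. 177Lu-labeled conjugates were injected i.v., and ex vivo organ distribution was measured at two time points post-injection.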

[2] = as above; conditions: CB17 SCID, mouse, iv, total radioactivity, H2009 bearing SCID mice; for tissue uptake at 1.5 h / tissue to tissue ratio at 1.5 h: 90 pmol, 90 min p.i.; for tissue uptake at 72 h / tissue to tissue ratio at 72 h: 92 pmol, 3 d p.i.
Outline: as §1

[3] = H2009 tumor, read-out: Tumor H2009 %IA/g
[4] = adrenals, read-out: Adrenals %IA/g
[5] = heart (myocard), read-out: Heart (myocard) %IA/g
[6] = kidneys, read-out: Kidneys %IA/g
[7] = large intestine (empty), read-out: Large intestine (empty) %IA/g
[8] = pancreas, read-out: Pancreas %IA/g
[9] = small intestine (empty), read-out: Small intestine (empty) %IA/g
[10] = stomach (empty), read-out: Stomach (empty) %IA/g
[11] = tumor/blood, read-out: tumor/organ ratio, Blood
[12] = tumor/heart (myocard), read-out: tumor/organ ratio, Heart (myocard)
[13] = tumor/liver, read-out: tumor/organ ratio, Liver
[14] = tumor/lung, read-out: tumor/organ ratio, Lung
[15] = tumor/pancreas, read-out: tumor/organ ratio, Pancreas
[16] = tumor/spleen, read-out: tumor/organ ratio, Spleen

CC(C)C[C@@H]1NC(=O)[C@H](CC(=O)O)NC(=O)CNC(=O)[C@H](CCCNC(=N)N)NC(=O)[C@H](Cc2ccccc2)NC(=O)[C@H](CCCCNC(=O)CCc2cn(CCCNC(=O)CCP(=O)(O)CN3CCN(CP(=O)(O)CCC(=O)NCCCn4cc(CCC(=O)NCCCC[C@H]5C(=O)N[C@@H](Cc6ccccc6)C(=O)N[C@@H](CCCNC(=N)N)C(=O)NCC(=O)N[C@@H](CC(=O)O)C(=O)N[C@@H](CC(C)C)C(=O)N[C@@H](C)C(=O)N[C@@H](Cc6ccccc6)C(=O)N6CCC[C@@H]6C(=O)N5C)nn4)CCN(CP(=O)(O)CCC(=O)NCCCn4cc(CCC(=O)NCCCC[C@H]5C(=O)N[C@@H](Cc6ccccc6)C(=O)N[C@@H](CCCNC(=N)N)C(=O)NCC(=O)N[C@@H](CC(=O)O)C(=O)N[C@@H](CC(C)C)C(=O)N[C@@H](C)C(=O)N[C@@H](Cc6ccccc6)C(=O)N6CCC[C@@H]6C(=O)N5C)nn4)CCN(CP(=O)(O)CCC(=O)NCCCn4cc(CCC(=O)NCCCC[C@H]5C(=O)N[C@@H](Cc6ccccc6)C(=O)N[C@@H](CCCNC(=N)N)C(=O)NCC(=O)N[C@@H](CC(=O)O)C(=O)N[C@@H](CC(C)C)C(=O)N[C@@H](C)C(=O)N[C@@H](Cc6ccccc6)C(=O)N6CCC[C@@H]6C(=O)N5C)nn4)CC3)nn2)N(C)C(=O)[C@H]2CCCN2C(=O)[C@H](Cc2ccccc2)NC(=O)[C@H](C)NC1=O [Compound 177Lu-Y0, metal not drawn]
tumor/organ ratio, Kidneys ([1]; 90 min p.i.): 0.0
tumor/organ ratio, Kidneys ([1]; 3 d p.i.): 0.0
tissue uptake at 1.5 h [2, 3]: 3.23 %ID/g
tissue uptake at 72 h [2, 3]: 1.72 %ID/g
tissue uptake at 1.5 h [2, 4]: 1.36 %ID/g
tissue uptake at 72 h [2, 4]: 0.82 %ID/g
tissue uptake at 1.5 h ([2]; blood, read-out: Blood %IA/g): 1.2 %ID/g
tissue uptake at 72 h ([2]; blood, read-out: Blood %IA/g): 0.02 %ID/g
tissue uptake at 1.5 h ([2]; bone, read-out: Bone %IA/g): 1.45 %ID/g
tissue uptake at 72 h ([2]; bone, read-out: Bone %IA/g): 0.42 %ID/g
tissue uptake at 1.5 h [2, 5]: 1.13 %ID/g
tissue uptake at 72 h [2, 5]: 0.43 %ID/g
tissue uptake at 1.5 h [2, 6]: 208 %ID/g
tissue uptake at 72 h [2, 6]: 243 %ID/g
tissue uptake at 1.5 h [2, 7]: 3 %ID/g
tissue uptake at 72 h [2, 7]: 1.19 %ID/g
tissue uptake at 1.5 h ([2]; liver, read-out: Liver %IA/g): 5.03 %ID/g
tissue uptake at 72 h ([2]; liver, read-out: Liver %IA/g): 2.61 %ID/g
tissue uptake at 1.5 h ([2]; lung, read-out: Lung %IA/g): 3.59 %ID/g
tissue uptake at 72 h ([2]; lung, read-out: Lung %IA/g): 1.22 %ID/g
tissue uptake at 1.5 h ([2]; muscle, read-out: Muscle %IA/g): 0.53 %ID/g
tissue uptake at 72 h ([2]; muscle, read-out: Muscle %IA/g): 0.29 %ID/g
tissue uptake at 1.5 h [2, 8]: 0.49 %ID/g
tissue uptake at 72 h [2, 8]: 0.31 %ID/g
tissue uptake at 1.5 h [2, 9]: 1.67 %ID/g
tissue uptake at 72 h [2, 9]: 0.82 %ID/g
tissue uptake at 1.5 h ([2]; spleen, read-out: Spleen %IA/g): 2.22 %ID/g
tissue uptake at 72 h ([2]; spleen, read-out: Spleen %IA/g): 1.58 %ID/g
tissue uptake at 1.5 h [2, 10]: 4.15 %ID/g
tissue uptake at 72 h [2, 10]: 2.63 %ID/g
tissue to tissue ratio at 72 h ([2]; tumor / adrenals, read-out: tumor/organ ratio, Adrenals): 2.1
tissue to tissue ratio at 72 h ([2]; tumor / bone, read-out: tumor/organ ratio, Bone): 5
tissue to tissue ratio at 72 h ([2]; tumor / large intestine (empty), read-out: tumor/organ ratio, Large intestine (empty)): 2.1
tissue to tissue ratio at 72 h ([2]; tumor / muscle, read-out: tumor/organ ratio, Muscle): 8.2
tissue to tissue ratio at 72 h ([2]; tumor / small intestine (empty), read-out: tumor/organ ratio, Small intestine (empty)): 2.2
tissue to tissue ratio at 72 h ([2]; tumor / stomach (empty), read-out: tumor/organ ratio, Stomach (empty)): 0.8
tissue to tissue ratio at 1.5 h ([2]; tumor/adrenals, read-out: tumor/organ ratio, Adrenals): 2.9
tissue to tissue ratio at 1.5 h [2, 11]: 2.7
tissue to tissue ratio at 72 h [2, 11]: 97.5
tissue to tissue ratio at 1.5 h ([2]; tumor/bone, read-out: tumor/organ ratio, Bone): 2.4
tissue to tissue ratio at 1.5 h [2, 12]: 3
tissue to tissue ratio at 72 h [2, 12]: 4.3
tissue to tissue ratio at 1.5 h ([2]; tumor/large intestine (empty), read-out: tumor/organ ratio, Large intestine (empty)): 1.1
tissue to tissue ratio at 1.5 h [2, 13]: 0.7
tissue to tissue ratio at 72 h [2, 13]: 0.7
tissue to tissue ratio at 1.5 h [2, 14]: 0.9
tissue to tissue ratio at 72 h [2, 14]: 1.5
tissue to tissue ratio at 1.5 h ([2]; tumor/muscle, read-out: tumor/organ ratio, Muscle): 6
tissue to tissue ratio at 1.5 h [2, 15]: 6.7
tissue to tissue ratio at 72 h [2, 15]: 6.3
tissue to tissue ratio at 1.5 h ([2]; tumor/small intestine (empty), read-out: tumor/organ ratio, Small intestine (empty)): 2
tissue to tissue ratio at 1.5 h [2, 16]: 1.6
tissue to tissue ratio at 72 h [2, 16]: 1.1
tissue to tissue ratio at 1.5 h ([2]; tumor/stomach (empty), read-out: tumor/organ ratio, Stomach (empty)): 0.8
